The values that follow come from publication doi:10.1101/2022.06.28.497981.

Assay [1] has as its target batCOV5-MCTD-GFP as crystallized (Pipistrellus bat coronavirus HKU5) (UniProt A3EXD6). Kind of assay: crystal structure.
In assay [2] the target is batCOV5-M, trypsin-treated stable core as crystallized (batCOV5-M_(xtal)) (Pipistrellus bat coronavirus HKU5) (UniProt A3EXD6). Kind of assay: crystal structure.

For “batCOV5-MCTD-GFP as crystallized (from UniProt A3EXD6 115-203) (domain or fragment)”, the stoichiometry N in assay [1] came to 4.
Consider “batCOV5-M, trypsin-treated stable core as crystallized (batCOV5-M_(xtal)) (from UniProt A3EXD6 1-220) (natural protein)”, for which, in assay [2], the stoichiometry N turned out to be 2.

For orientation: stoichiometry N means a count of units in the complex or per binding partner.
